Measurements published in article PMC3068626, “Cholesterol utilization in mycobacteria is controlled by two TetR-type transcriptional regulators: kstR and kstR2”.

B1: Rv3557c/Rv3558 probe (dsDNA)
DNA 1: GCTGGCCGAGCAAGCGCTTGGTTGATAGTC
DNA 2: GACTATCAACCAAGCGCTTGCTCGGCCAGC
B2: Rv3560c/Rv3561 probe (dsDNA)
DNA 1: GCTAACCTACCAAGCACTTGCTTTGTTAGG
DNA 2: CCTAACAAAGCAAGTGCTTGGTAGGTTAGC
B3: Rv3557c/Rv3558 probe, DIG-labelled (dsDNA)
DNA 1: GCTGGCCGAGCAAGCGCTTGGTTGATAGTC
DNA 2: GACTATCAACCAAGCGCTTGCTCGGCCAGC
B4: Rv3549c/Rv3550 probe (dsDNA)
DNA 1: GCGTACCAAGCAAGTGCTTGCTTAGGTAGC
DNA 2: GCTACCTAAGCAAGCACTTGCTTGGTACGC

Tests used:
KstR2Mtb [1] = target: T1, KstR2Mtb (Mycobacterium tuberculosis, UniProt P9WMB9 1-200); test: EMSA; 1 uM DNA, 6 uM protein, 10 mM MgCl2; 20 mM Tris/HCl pH 8.0, 10 mM MgCl2, 75 mM NaCl, 20 min at 37 C; […]; conditions: protein: recombinant; tags: none in EMSA (His6 tag removed with TEV protease); chain copies: 2; label: none (ethidium bromide stain); blunt
T1 sequence (P9WMB9 whole entry): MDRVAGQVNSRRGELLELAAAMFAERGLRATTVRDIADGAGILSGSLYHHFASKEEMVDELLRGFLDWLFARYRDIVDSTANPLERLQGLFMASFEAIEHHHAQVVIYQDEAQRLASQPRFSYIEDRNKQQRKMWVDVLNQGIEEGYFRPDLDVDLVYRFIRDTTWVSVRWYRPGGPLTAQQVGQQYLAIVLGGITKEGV

KstR2Mtb [2] = target: T1, KstR2Mtb; test: EMSA; 20 mM Tris/HCl pH 8.0, 10 mM MgCl2, 75 mM NaCl, 20 min at 37 C; […]; conditions: protein: recombinant; tags: none in EMSA (His6 tag removed with TEV protease); chain copies: 2; label: 3' DIG-11-ddUTP (end-labelled)

Binder	binding result (KstR2Mtb [1])	binding result (KstR2Mtb [2])
B1	binds	–
B2	binds	–
B3	–	binds
B4	binds	–
